Experimental findings from patent publication US7977459 (TOUDAI TLO, dated 2011) are described below.

Several values for one entry are separate records, joined by “and”; a condition that tells them apart may be missing. Identical values can stand only once.

Assay [1] addresses T1, mouse AdipoR2 (mouse adiponectin receptor 2) (mouse, UniProt Q8BQS5 76-386).
T1 construct: also called mAdipoR2
T1 sequence: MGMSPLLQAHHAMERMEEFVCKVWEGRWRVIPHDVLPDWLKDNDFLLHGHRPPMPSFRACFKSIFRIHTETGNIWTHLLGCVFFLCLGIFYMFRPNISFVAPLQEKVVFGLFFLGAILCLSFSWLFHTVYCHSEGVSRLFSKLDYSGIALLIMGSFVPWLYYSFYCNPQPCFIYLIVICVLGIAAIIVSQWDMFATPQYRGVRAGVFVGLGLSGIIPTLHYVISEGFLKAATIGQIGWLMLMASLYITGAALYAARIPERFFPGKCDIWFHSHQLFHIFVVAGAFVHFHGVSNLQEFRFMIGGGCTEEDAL
The assay is described as follows: Scatchard analysis of [125I] Ad binding to C2C12 myocytes; intermediate affinity sites, tied to AdipoR2 because AdipoR2 siRNA abrogated them.

Assay [2] deals with T2, mouse AdipoR1 (mouse adiponectin receptor 1) (mouse, UniProt Q91VH1 1-375).
T2 construct: also called mAdipoR1
T2 sequence: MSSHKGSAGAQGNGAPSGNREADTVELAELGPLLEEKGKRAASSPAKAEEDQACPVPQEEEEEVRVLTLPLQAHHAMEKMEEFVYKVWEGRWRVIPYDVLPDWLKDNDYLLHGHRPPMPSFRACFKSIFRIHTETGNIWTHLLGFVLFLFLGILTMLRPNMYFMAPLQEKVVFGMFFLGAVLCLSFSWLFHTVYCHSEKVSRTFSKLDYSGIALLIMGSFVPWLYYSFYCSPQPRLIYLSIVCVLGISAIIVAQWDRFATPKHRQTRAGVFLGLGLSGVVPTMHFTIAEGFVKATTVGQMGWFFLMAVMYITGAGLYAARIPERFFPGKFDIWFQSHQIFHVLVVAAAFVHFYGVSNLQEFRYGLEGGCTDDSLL
Nature of the assay: Scatchard analysis of [125I] gAd binding to C2C12 myocytes; high affinity sites, tied to AdipoR1 because AdipoR1 siRNA abrogated them.

Assay [3] addresses T1, mouse AdipoR2 (mouse adiponectin …). The assay is described as follows: Scatchard analysis of [125I] gAd binding to C2C12 myocytes; intermediate affinity sites, tied to AdipoR2 because AdipoR2 siRNA abrogated them.

B1: full-length adiponectin (full-length Adipo) (ligand, mouse, UniProt Q60994 18-247, looked up)
chain: EDDVTTTEELAPALVPPPKGTCAGWMAGIPGHPGHNGTPGRDGRDGTPGEKGEKGDAGLLGPKGETGDVGMTGAEGPRGFPGTPGRKGEPGEAAYVYRSAFSVGLETRVTVPNVPIRFTKIFYNQQNHYDGSTGKFYCNIPGLYYFSYHITVYMKDVKVSLFKKDKAVLFTYDQYQEKNVDQASGSVLLHLEVGDQVWLQVYGDGDHNGLYADNVNDSTFTGFLLYHDTN
modifications: 125I-labeled at Tyr in the radioligand binding assay
notes: also called [125I] full-length Adipo
As usually defined, the Kd is the constant that tells how readily two partners part at equilibrium. Low readings indicate a tighter complex, high ones a looser complex. On to B1, for which the Kd in assay [1] is ~6.7 µg/mL and ~49.1 nM.

B2: adiponectin consisting solely of the globular domain (globular Adipo) (ligand, mouse, UniProt Q60994 104-247, looked up)
chain: KGEPGEAAYVYRSAFSVGLETRVTVPNVPIRFTKIFYNQQNHYDGSTGKFYCNIPGLYYFSYHITVYMKDVKVSLFKKDKAVLFTYDQYQEKNVDQASGSVLLHLEVGDQVWLQVYGDGDHNGLYADNVNDSTFTGFLLYHDTN
modifications: 125I-labeled at Tyr in the radioligand binding assay; biotinylated with NHS-LC-Biotin or conjugated with FITC in the FACS experiments
notes: domain: globular domain; also called gAd; globular adiponectin
Turning to B2, the Kd in assay [2] was ~0.06 µg/mL and ~1.14 nM; in assay [3], ~0.8 µg/mL and ~14.4 nM.
